Patent US20150344570A1 (published 2015)

T1: FcγRIIa H (FcγRIIa type H, His at position 131), extracellular domain with C-terminal His tag (human, UniProt P12318 34-217)
T1 construct: extracellular domain; also called FcgRIIa H; 2aH
T1 sequence (looked up): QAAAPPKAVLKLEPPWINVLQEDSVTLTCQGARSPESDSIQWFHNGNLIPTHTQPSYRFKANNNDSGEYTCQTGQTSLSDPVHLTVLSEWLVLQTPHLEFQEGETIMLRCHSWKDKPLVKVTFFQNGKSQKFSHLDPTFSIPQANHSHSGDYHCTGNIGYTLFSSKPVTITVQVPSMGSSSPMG


target: T1, FcγRIIa H (FcγRIIa type H, His at …); experiment: SPR Biacore, relative binding, GpH7-A5/GpH7-B3/GpL16-k0 (HeCon Ab)=100
Method: Analysis of interaction between objective antibody and the FcγR was carried out using Biacore T100 (GE Healthcare). HBS-EP+ (GE Healthcare) was used as the running buffer, and the measurement temperature was set to 25° C. Chips produced by immobilizing the antigen peptide by the amine coupling method to a Series S Sencor Chip CM5 (GE Healthcare), or alternatively, chips produced by allowing preliminarily biotinylated antigen peptides to interact with and immobilize onto a Series S Sensor Chip SA (certified) (GE Healthcare) were used. Antibodies of interest were captured onto an antigen peptide-immobilized chip, and allowed to interact to each FcγR diluted with running buffer. To regenerate and repeatedly use the chip, the antibodies captured on the chip were washed off by reacting 10 mM glycine-HCl, pH 1.5.

Row | He/Con_2aH | Binder
1 | 102 % of control | GpH7-A5/GpH7-B3 variant Q295_07I/GpL16-k0 (antibody, human IgG1, kappa, one H chain mutated; also called He Ab) heavy 1: not shown heavy 2: not shown light: DIVMTQSPLSLPVTPGEPASISCQASESLVHSNRNTYLHWYLQKPGQSPQLLIYKVSNRFSGVPDRFSGSGSGTDFTLKISRVEAEDVGVYYCSQNTHVPPTFGQGTKVEIERTVAAPSVFIFPPSDEQLKSGTASVVCLLNNFYPREAKVQWKVDNALQSGNSQESVTEQDSKDSTYSLSSTLTLSKADYEKHKVYACEVTHQGLSSPVTKSFNRGEC
2 | 120 % of control | GpH7-A5/GpH7-B3 variant S267_02A/GpL16-k0 (antibody, human IgG1, kappa, one H chain mutated; also called He Ab) heavy 1: not shown heavy 2: not shown light: DIVMTQSPLSLPVTPGEPASISCQASESLVHSNRNTYLHWYLQKPGQSPQLLIYKVSNRFSGVPDRFSGSGSGTDFTLKISRVEAEDVGVYYCSQNTHVPPTFGQGTKVEIERTVAAPSVFIFPPSDEQLKSGTASVVCLLNNFYPREAKVQWKVDNALQSGNSQESVTEQDSKDSTYSLSSTLTLSKADYEKHKVYACEVTHQGLSSPVTKSFNRGEC
3 | 107 % of control | GpH7-A5/GpH7-B3 variant S337_09D/GpL16-k0 (antibody, human IgG1, kappa, one H chain mutated; also called He Ab) heavy 1: not shown heavy 2: not shown light: DIVMTQSPLSLPVTPGEPASISCQASESLVHSNRNTYLHWYLQKPGQSPQLLIYKVSNRFSGVPDRFSGSGSGTDFTLKISRVEAEDVGVYYCSQNTHVPPTFGQGTKVEIERTVAAPSVFIFPPSDEQLKSGTASVVCLLNNFYPREAKVQWKVDNALQSGNSQESVTEQDSKDSTYSLSSTLTLSKADYEKHKVYACEVTHQGLSSPVTKSFNRGEC
4 | 108 % of control | GpH7-A5/GpH7-B3 variant T335_07I/GpL16-k0 (antibody, human IgG1, kappa, one H chain mutated; also called He Ab) heavy 1: not shown heavy 2: not shown light: DIVMTQSPLSLPVTPGEPASISCQASESLVHSNRNTYLHWYLQKPGQSPQLLIYKVSNRFSGVPDRFSGSGSGTDFTLKISRVEAEDVGVYYCSQNTHVPPTFGQGTKVEIERTVAAPSVFIFPPSDEQLKSGTASVVCLLNNFYPREAKVQWKVDNALQSGNSQESVTEQDSKDSTYSLSSTLTLSKADYEKHKVYACEVTHQGLSSPVTKSFNRGEC
5 | 106 % of control | GpH7-A5/GpH7-B3 variant T335_13S/GpL16-k0 (antibody, human IgG1, kappa, one H chain mutated; also called He Ab) heavy 1: not shown heavy 2: not shown light: DIVMTQSPLSLPVTPGEPASISCQASESLVHSNRNTYLHWYLQKPGQSPQLLIYKVSNRFSGVPDRFSGSGSGTDFTLKISRVEAEDVGVYYCSQNTHVPPTFGQGTKVEIERTVAAPSVFIFPPSDEQLKSGTASVVCLLNNFYPREAKVQWKVDNALQSGNSQESVTEQDSKDSTYSLSSTLTLSKADYEKHKVYACEVTHQGLSSPVTKSFNRGEC
6 | 106 % of control | GpH7-A5/GpH7-B3 variant S324_09D/GpL16-k0 (antibody, human IgG1, kappa, one H chain mutated; also called He Ab) heavy 1: not shown heavy 2: not shown light: DIVMTQSPLSLPVTPGEPASISCQASESLVHSNRNTYLHWYLQKPGQSPQLLIYKVSNRFSGVPDRFSGSGSGTDFTLKISRVEAEDVGVYYCSQNTHVPPTFGQGTKVEIERTVAAPSVFIFPPSDEQLKSGTASVVCLLNNFYPREAKVQWKVDNALQSGNSQESVTEQDSKDSTYSLSSTLTLSKADYEKHKVYACEVTHQGLSSPVTKSFNRGEC
7 | 114 % of control | GpH7-A5/GpH7-B3 variant S239_09D/GpL16-k0 (antibody, human IgG1, kappa, one H chain mutated; also called He Ab) heavy 1: not shown heavy 2: not shown light: DIVMTQSPLSLPVTPGEPASISCQASESLVHSNRNTYLHWYLQKPGQSPQLLIYKVSNRFSGVPDRFSGSGSGTDFTLKISRVEAEDVGVYYCSQNTHVPPTFGQGTKVEIERTVAAPSVFIFPPSDEQLKSGTASVVCLLNNFYPREAKVQWKVDNALQSGNSQESVTEQDSKDSTYSLSSTLTLSKADYEKHKVYACEVTHQGLSSPVTKSFNRGEC
8 | 103 % of control | GpH7-A5/GpH7-B3 variant S337_14T/GpL16-k0 (antibody, human IgG1, kappa, one H chain mutated; also called He Ab) heavy 1: not shown heavy 2: not shown light: DIVMTQSPLSLPVTPGEPASISCQASESLVHSNRNTYLHWYLQKPGQSPQLLIYKVSNRFSGVPDRFSGSGSGTDFTLKISRVEAEDVGVYYCSQNTHVPPTFGQGTKVEIERTVAAPSVFIFPPSDEQLKSGTASVVCLLNNFYPREAKVQWKVDNALQSGNSQESVTEQDSKDSTYSLSSTLTLSKADYEKHKVYACEVTHQGLSSPVTKSFNRGEC
9 | 105 % of control | GpH7-A5/GpH7-B3 variant T335_16H/GpL16-k0 (antibody, human IgG1, kappa, one H chain mutated; also called He Ab) heavy 1: not shown heavy 2: not shown light: DIVMTQSPLSLPVTPGEPASISCQASESLVHSNRNTYLHWYLQKPGQSPQLLIYKVSNRFSGVPDRFSGSGSGTDFTLKISRVEAEDVGVYYCSQNTHVPPTFGQGTKVEIERTVAAPSVFIFPPSDEQLKSGTASVVCLLNNFYPREAKVQWKVDNALQSGNSQESVTEQDSKDSTYSLSSTLTLSKADYEKHKVYACEVTHQGLSSPVTKSFNRGEC
10 | 108 % of control | GpH7-A5/GpH7-B3 variant T335_10E/GpL16-k0 (antibody, human IgG1, kappa, one H chain mutated; also called He Ab) heavy 1: not shown heavy 2: not shown light: DIVMTQSPLSLPVTPGEPASISCQASESLVHSNRNTYLHWYLQKPGQSPQLLIYKVSNRFSGVPDRFSGSGSGTDFTLKISRVEAEDVGVYYCSQNTHVPPTFGQGTKVEIERTVAAPSVFIFPPSDEQLKSGTASVVCLLNNFYPREAKVQWKVDNALQSGNSQESVTEQDSKDSTYSLSSTLTLSKADYEKHKVYACEVTHQGLSSPVTKSFNRGEC
11 | 102 % of control | GpH7-A5/GpH7-B3 variant S324_02A/GpL16-k0 (antibody, human IgG1, kappa, one H chain mutated; also called He Ab) heavy 1: not shown heavy 2: not shown light: DIVMTQSPLSLPVTPGEPASISCQASESLVHSNRNTYLHWYLQKPGQSPQLLIYKVSNRFSGVPDRFSGSGSGTDFTLKISRVEAEDVGVYYCSQNTHVPPTFGQGTKVEIERTVAAPSVFIFPPSDEQLKSGTASVVCLLNNFYPREAKVQWKVDNALQSGNSQESVTEQDSKDSTYSLSSTLTLSKADYEKHKVYACEVTHQGLSSPVTKSFNRGEC
12 | 103 % of control | GpH7-A5/GpH7-B3 variant T335_01G/GpL16-k0 (antibody, human IgG1, kappa, one H chain mutated; also called He Ab) heavy 1: not shown heavy 2: not shown light: DIVMTQSPLSLPVTPGEPASISCQASESLVHSNRNTYLHWYLQKPGQSPQLLIYKVSNRFSGVPDRFSGSGSGTDFTLKISRVEAEDVGVYYCSQNTHVPPTFGQGTKVEIERTVAAPSVFIFPPSDEQLKSGTASVVCLLNNFYPREAKVQWKVDNALQSGNSQESVTEQDSKDSTYSLSSTLTLSKADYEKHKVYACEVTHQGLSSPVTKSFNRGEC
13 | 106 % of control | GpH7-A5/GpH7-B3 variant T335_15Y/GpL16-k0 (antibody, human IgG1, kappa, one H chain mutated; also called He Ab) heavy 1: not shown heavy 2: not shown light: DIVMTQSPLSLPVTPGEPASISCQASESLVHSNRNTYLHWYLQKPGQSPQLLIYKVSNRFSGVPDRFSGSGSGTDFTLKISRVEAEDVGVYYCSQNTHVPPTFGQGTKVEIERTVAAPSVFIFPPSDEQLKSGTASVVCLLNNFYPREAKVQWKVDNALQSGNSQESVTEQDSKDSTYSLSSTLTLSKADYEKHKVYACEVTHQGLSSPVTKSFNRGEC
14 | 103 % of control | GpH7-A5/GpH7-B3 variant S324_20W/GpL16-k0 (antibody, human IgG1, kappa, one H chain mutated; also called He Ab) heavy 1: not shown heavy 2: not shown light: DIVMTQSPLSLPVTPGEPASISCQASESLVHSNRNTYLHWYLQKPGQSPQLLIYKVSNRFSGVPDRFSGSGSGTDFTLKISRVEAEDVGVYYCSQNTHVPPTFGQGTKVEIERTVAAPSVFIFPPSDEQLKSGTASVVCLLNNFYPREAKVQWKVDNALQSGNSQESVTEQDSKDSTYSLSSTLTLSKADYEKHKVYACEVTHQGLSSPVTKSFNRGEC
15 | 117 % of control | GpH7-A5/GpH7-B3 variant S324_06M/GpL16-k0 (antibody, human IgG1, kappa, one H chain mutated; also called He Ab) heavy 1: not shown heavy 2: not shown light: DIVMTQSPLSLPVTPGEPASISCQASESLVHSNRNTYLHWYLQKPGQSPQLLIYKVSNRFSGVPDRFSGSGSGTDFTLKISRVEAEDVGVYYCSQNTHVPPTFGQGTKVEIERTVAAPSVFIFPPSDEQLKSGTASVVCLLNNFYPREAKVQWKVDNALQSGNSQESVTEQDSKDSTYSLSSTLTLSKADYEKHKVYACEVTHQGLSSPVTKSFNRGEC
16 | 102 % of control | GpH7-A5/GpH7-B3 variant S337_10E/GpL16-k0 (antibody, human IgG1, kappa, one H chain mutated; also called He Ab) heavy 1: not shown heavy 2: not shown light: DIVMTQSPLSLPVTPGEPASISCQASESLVHSNRNTYLHWYLQKPGQSPQLLIYKVSNRFSGVPDRFSGSGSGTDFTLKISRVEAEDVGVYYCSQNTHVPPTFGQGTKVEIERTVAAPSVFIFPPSDEQLKSGTASVVCLLNNFYPREAKVQWKVDNALQSGNSQESVTEQDSKDSTYSLSSTLTLSKADYEKHKVYACEVTHQGLSSPVTKSFNRGEC
17 | 103 % of control | GpH7-A5/GpH7-B3 variant S324_10E/GpL16-k0 (antibody, human IgG1, kappa, one H chain mutated; also called He Ab) heavy 1: not shown heavy 2: not shown light: DIVMTQSPLSLPVTPGEPASISCQASESLVHSNRNTYLHWYLQKPGQSPQLLIYKVSNRFSGVPDRFSGSGSGTDFTLKISRVEAEDVGVYYCSQNTHVPPTFGQGTKVEIERTVAAPSVFIFPPSDEQLKSGTASVVCLLNNFYPREAKVQWKVDNALQSGNSQESVTEQDSKDSTYSLSSTLTLSKADYEKHKVYACEVTHQGLSSPVTKSFNRGEC
18 | 101 % of control | GpH7-A5/GpH7-B3 variant S337_16H/GpL16-k0 (antibody, human IgG1, kappa, one H chain mutated; also called He Ab) heavy 1: not shown heavy 2: not shown light: DIVMTQSPLSLPVTPGEPASISCQASESLVHSNRNTYLHWYLQKPGQSPQLLIYKVSNRFSGVPDRFSGSGSGTDFTLKISRVEAEDVGVYYCSQNTHVPPTFGQGTKVEIERTVAAPSVFIFPPSDEQLKSGTASVVCLLNNFYPREAKVQWKVDNALQSGNSQESVTEQDSKDSTYSLSSTLTLSKADYEKHKVYACEVTHQGLSSPVTKSFNRGEC
19 | 103 % of control | GpH7-A5/GpH7-B3 variant T335_19Q/GpL16-k0 (antibody, human IgG1, kappa, one H chain mutated; also called He Ab) heavy 1: not shown heavy 2: not shown light: DIVMTQSPLSLPVTPGEPASISCQASESLVHSNRNTYLHWYLQKPGQSPQLLIYKVSNRFSGVPDRFSGSGSGTDFTLKISRVEAEDVGVYYCSQNTHVPPTFGQGTKVEIERTVAAPSVFIFPPSDEQLKSGTASVVCLLNNFYPREAKVQWKVDNALQSGNSQESVTEQDSKDSTYSLSSTLTLSKADYEKHKVYACEVTHQGLSSPVTKSFNRGEC
